1 substance from PMC4841768 can be followed below.

One series is described as follows: Western blot, mESCs. The settings on record: glycan lost; control: fSOX2-Tg mESCs. For orientation: In western blotting, separated proteins are transferred to a membrane and probed.
The nature of series [1]: immunofluorescence, mESCs. The settings on record: glycan lost; control: fSOX2-Tg mESCs.
The nature of series [2]: label-free LC-MS of TAD peptide. The settings on record: glycan lost; control: fSOX2-Tg mESCs.
A short description of series [3]: FLAG immunofluorescence, MEFs day 6. The settings on record: glycan lost; control: OSFLAG-WTKM.
A short description of series [4]: Western blot and immunostaining, transduced MEFs. The settings on record: glycan lost; control: OSFLAG-WTKM.

SOX2: S248A, sequence (chain, as listed by the source S248A): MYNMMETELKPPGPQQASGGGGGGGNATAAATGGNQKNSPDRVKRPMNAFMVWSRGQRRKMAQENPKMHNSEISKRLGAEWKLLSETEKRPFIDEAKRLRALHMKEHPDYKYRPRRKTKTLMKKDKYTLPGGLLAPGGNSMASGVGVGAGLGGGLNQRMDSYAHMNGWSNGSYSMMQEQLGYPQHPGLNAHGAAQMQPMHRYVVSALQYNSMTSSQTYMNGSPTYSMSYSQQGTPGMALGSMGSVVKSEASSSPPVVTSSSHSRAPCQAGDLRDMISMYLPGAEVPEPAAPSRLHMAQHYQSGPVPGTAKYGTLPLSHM

Consider SOX2: S248A, for which the expression_or_secretion entry in “Western blot, mESCs” is on record as “no change”; in series [4], “no change”. Moreover, the localisation_or_trafficking result in series [1] and in series [3] was “no change” each time. In addition, in series [2], the “other: phosphorylation at S253, other: % of total TAD peptide” value is listed as “increases, 18.7 vs 10.9”.
